The source of these data is article PMC2570039 (Molecular cell, 2008).

Data set [1] has as its target FtsK50C (50 amino acids from FtsKN fused to FtsKC) (E. coli). Description: […].
Data set [2] shares this target. Description: SEC.
Data set [3] concerns the molecule itself. Description: crystal structure.

Turning to “FtsK50C (50 amino acids from FtsKN fused to FtsKC) (domain or fragment)”, the stoichiometry N in data set [1] and in data set [2] was 6 throughout.

B1: Seleno-methionine-substituted Pseudomonas aeruginosa FtsK γ-domain (GGS-742-811) (domain or fragment)
chain: GGSEGSEDDPLYDEAVRFVTESRRASISAVQRKLKIGYNRAARMIEAMEMAGVVTPMNTNGSREVIAPAPVRD
modifications: seleno-methionine-substituted
B1: the binding result in data set [3] was “binds”.

Broadly, the stoichiometry N is a count of units in the complex or per binding partner.
